target: HLA-A*0201 loaded with the Carcinoembryonic antigen (CEA)-derived … peptide (biotinylated on the C-terminal biotinylation tag); test: SPR (Biacore), Example 4

Binder	Kd	koff
SEQ ID NO 54 (receptor) MGHLPKPTLWAEPGSVITQGSPVTLRCQGGQETQEYRLYREKKTAPWITRIPQELVKKGQFPIPSITWEHAGRYRCYYGSDTAGRSESSDPLELVVTGIYKQPTLSAQPSPVVNSGGNVTLQCDSQVAFDGFILCKEGEDEHPQCLNSQPHARGSSRAIFSVGPVSPGRRWWYRCYAYDSNSPYEWSLPSDLLELLVL	≤ 1000 nM	≤ 2 s⁻¹
SEQ ID NO 55 (receptor) MGHLPKPTLWAEPGSVITQGSPVTLRCQGGQETQEYRLYREKKTAPWITRIPQELVKKGQFPIPSITWEHAGRYRCYYGSDTAGRSESSDPLELVVTGIYQKPTLSAQPSPVVNSGGNVTLQCDSQVAFDGFILCKEGEDEHPQCLNSQPHARGSSRAIFSVGPVSPSRRWWYRCYAYDSNSPYEWSLPSDLLELLVL	≤ 1000 nM	≤ 2 s⁻¹
SEQ ID NO 56 (receptor) MGHLPKPTLWAEPGSVITMDQPVTLRCQGGQETQEYRLYREKKTAPWITRIPQELVKKGQFPIPSITWEHAGRYRCYYGSDTAGRSESSDPLELVVTGIYLAPTLSAQPSPVVNSGGNVTLQCDSQVAFDGFILCKEGEDEHPQCLNSQPHARGSSRAIFSVGPVSPSRRWWYRCYAYDSNSPYEWSLPSDLLELLVL	≤ 1000 nM	≤ 2 s⁻¹
SEQ ID NO 57 (receptor) MGHLPKPTLWAEPGSVITLGQPVTLRCQGGQETQEYRLYREKKTAPWITRIPQELVKKGQFPIPSITWEHAGRYRCYYGSDTAGRSESSDPLELVVTGIYLAPTLSAQPSPVVNSGGNVTLQCDSQVAFDGFILCKEGEDEHPQCLNSQPHARGSSRAIFSVGPVSPSRRWWYRCYAYDSNSPYEWSLPSDLLELLVL	≤ 1000 nM	≤ 2 s⁻¹
SEQ ID NO 58 (receptor) MGHLPKPTLWAEPGSVITMDQPVTLRCQGGQETQEYRLYREKKTAPWITRIPQELVKKGQFPIPSITWEHAGRYRCYYGSDTSQWSASSDPLELVVTGIYLAPTLSAQPSPVVNSGGNVTLQCDSQVAFDGFILCKEGEDEHPQCLNSQPHARGSSRAIFSVGPVSPSRRWWYRCYAYDSNSPYEWSLPSDLLELLVL	≤ 1000 nM	≤ 2 s⁻¹
SEQ ID NO 59 (receptor) MGHLPKPTLWAEPGSVITLGQPVTLRCQGGQETQEYRLYREKKTAPWITRIPQELVKKGQFPIPSITWEHAGRYRCYYGSDTSQWSASSDPLELVVTGIYLAPTLSAQPSPVVNSGGNVTLQCDSQVAFDGFILCKEGEDEHPQCLNSQPHARGSSRAIFSVGPVSPSRRWWYRCYAYDSNSPYEWSLPSDLLELLVL	≤ 1000 nM	≤ 2 s⁻¹
SEQ ID NO 60 (receptor) MGHLPKPTLWAEPGSVITMDQPVTLRCQGGQETQEYRLYREKKTAPWITRIPQELVKKGQFPIPSITWEHAGRYRCIGRSQTSQWSASSDPLELVVTGIYLAPTLSAQPSPVVNSGGNVTLQCDSQVAFDGFILCKEGEDEHPQCLNSQPHARGSSRAIFSVGPVSPSRRWWYRCYAYDSNSPYEWSLPSDLLELLVL	≤ 1000 nM	≤ 2 s⁻¹
SEQ ID NO 61 (receptor) MGHLPKPTLWAEPGSVITLGQPVTLRCQGGQETQEYRLYREKKTAPWITRIPQELVKKGQFPIPSITWEHAGRYRCIGRSQTSQWSASSDPLELVVTGIYLAPTLSAQPSPVVNSGGNVTLQCDSQVAFDGFILCKEGEDEHPQCLNSQPHARGSSRAIFSVGPVSPSRRWWYRCYAYDSNSPYEWSLPSDLLELLVL	≤ 1000 nM	≤ 2 s⁻¹
SEQ ID NO 62 (receptor) MHLPKPTLWAEPGSVITMDQPVTLRCQGGQETQEYRLYREKKTAPWITRIPQELVKKGQFPIPSITWEHAGRYRCYYGSDTSQWSASSDPLELVVTGVYIKPTLSAQPSPVVNSGGNVTLQCDSQVAFDGFILCKEGEDEHPQCLNSQPHARGSSRAIFSVGPVSPSRRWWYRCYAYDSNSPYEWSLPSDLLELDVDG	≤ 1000 nM	≤ 2 s⁻¹
SEQ ID NO 63 (receptor) MHLPKPTLWAEPGSVITMDQPVTLRCQGGQETQEYRLYREKKTAPWITRIPQELVKKGQFPIPSITWEHAGRYRCYYGSDTSQWSASSDPLELVVTGVYIKPTLSAQPSPVVNSGGNVTLQCDSQVAFDGFILCKEGEDEHPQCLNSQPHARGSSRAIFSVGPVSPSRRWRYRCYAYDSNSPYEWSLPSDLLELDVDG	≤ 1000 nM	≤ 2 s⁻¹
SEQ ID NO 64 (receptor) MHLPKPTLWAEPGSVITMDQPVTLRCQGGQETQEYRLYREKKTAPWITLIPQELVKKGQFPIPSITWEHAGRYRCYYGSDTSQWSASSDPLELVVTGVYIKPTLSAQPSPVVNSGGNVTLQCDSQVAFDGFILCKEGEDGHPQCLNSQPHARGSSRAIFSVGPVSPSRRWWYWCYAYDSNSPYEWSLPSDLLELDVDG	≤ 1000 nM	≤ 2 s⁻¹
SEQ ID NO 65 (receptor) MHLPKPTLWAEPGSVITMDQPVTLRCQGGQETQEYRLYRERKTAPWITRIPQELVKKGQFPIPSITWEHAGRYRCYYGSDTSQWSASSDPLELVVTGVYIKPTLSAQPSPVVNSGGNVTLQCDSQVAFDGFILCKEGEDEHPQCLNSQPHARGSSRAIFSVGPVSPSRRWWYRCYAYDSNSPYEWSLPSDLLELDVDG	≤ 1000 nM	≤ 2 s⁻¹
SEQ ID NO 66 (receptor) MHLPKPTLWAEPGSVITLGQPVTLRCQGGQETQEYRLYREKKTAPWITRIPQELVKKGQFPIPSITWEHAGRYRCYYGSDTSQWSASSDPLELVVTGVYIKPTLSAQPSPVVNSGGNVTLQCDSQVAFDGFILCKEGEDEHPQCLNSQPHARGSSRAIFSVGPVSPSRRWWYRCYAYDSNSPYEWSLPSDLLELDVDG	≤ 1000 nM	≤ 2 s⁻¹
SEQ ID NO 67 (receptor) MHLPKPTLWAEPGSVITLGSPVTLRCQGGQETQEYRLYREKKTAPWITRIPQELVKKGQFPIPSITWEHAGRYRCYYGSDTSQWSASSDPLELVVTGVYIKPTLSAQPSPVVNSGGNVTLQCDSQVAFDGFILCKEGEDEHPQCLNSQPHARGSSRAIFSVGPVSPSRRWWYRCYAYDSNSPYEWSLPSDLLELDVDG	≤ 1000 nM	≤ 2 s⁻¹
SEQ ID NO 68 (receptor) MHLPKPTLWAEPGSVITLRSPVTLRCQGGQETQEYRLYREKKTAPWITRIPQELVKKGQFPIPSITWEHAGRYRCYYGSDTSQWSASSDPLELVVTGVYIKPTLSAQPSPVVNSGGNVTLQCDSQVAFDGFILCKEGEDEHPQCLNSQPHARGSSRAIFSVGPVSPSRRWWYRCYAYDSNSPYEWSLPSDLLELDVDG	≤ 1000 nM	≤ 2 s⁻¹
SEQ ID NO 69 (receptor) MHLPKPTLWAEPGSVITLQSPVTLRCQGGQETQEYRLYREKKTAPWITRIPQELVKKGQFPIPSITWEHAGRYRCYYGSDTSQWSASSDPLELVVTGVYIKPTLSAQPSPVVNSGGNVTLQCDSQVAFDGFILCKEGEDEHPQCLNSQPHARGSSRAIFSVGPVSPSRRWWYRCYAYDSNSPYEWSLPSDLLELDVDG	≤ 1000 nM	≤ 2 s⁻¹
SEQ ID NO 70 (receptor) MHLPKPTLWAEPGSVITLESPVTLRCQGGQETQEYRLYREKKTAPWITRIPQELVKKGQFPIPSITWEHAGRYRCYYGSDTSQWSASSDPLELVVTGVYIKPTLSAQPSPVVNSGGNVTLQCDSQVAFDGFILCKEGEDEHPQCLNSQPHARGSSRAIFSVGPVSPSRRWWYRCYAYDSNSPYEWSLPSDLLELDVDG	≤ 1000 nM	≤ 2 s⁻¹
SEQ ID NO 71 (receptor) MHLPKPTLWAEPGSVITMDQPVTLRCQGGQETQEYRLYREKKTAPWITRIPQELVKKGQFPIPSITWEHAGRYRCYYGTQTAGRSESSDPLELVVTGVYIKPTLSAQPSPVVNSGGNVTLQCDSQVAFDGFILCKEGEDEHPQCLNSQPHARGSSRAIFSVGPVSPSRRWWYRCYAYDSNSPYEWSLPSDLLELDVDG	≤ 1000 nM	≤ 2 s⁻¹
SEQ ID NO 72 (receptor) MHLPKPTLWAEPGSVITMDQPVTLRCQGGQETQEYRLYREKKTAPWITRIPQELVKKGQFPIPSITWEHAGRYRCMQYTLTAGRSESSDPLELVVTGVYIKPTLSAQPSPVVNSGGNVTLQCDSQVAFDGFILCKEGEDEHPQCLNSQPHARGSSRAIFSVGPVSPSRRWWYRCYAYDSNSPYEWSLPSDLLELDVDG	≤ 1000 nM	≤ 2 s⁻¹
SEQ ID NO 73 (receptor) MHLPKPTLWAEPGSVITMDQPVTLRCQGGQETQEYRLYREKKTAPWITRIPQELVKKGQFPIPSITWEHAGRYRCVIQRGTAGRSESSDPLELVVTGVYIKPTLSAQPSPVVNSGGNVTLQCDSQVAFDGFILCKEGEDEHPQCLNSQPHARGSSRAIFSVGPVSPSRRWWYRCYAYDSNSPYEWSLPSDLLELDVDG	≤ 1000 nM	≤ 2 s⁻¹
SEQ ID NO 74 (receptor) MHLPKPTLWAEPGSVITMDQPVTLRCQGGQETQEYRLYREKKTAPWITRIPQELVKKGQFPIPSITWEHAGRYRCYYGGQEGARSESSDPLELVVTGVYIKPTLSAQPSPVVNSGGNVTLQCDSQVAFDGFILCKEGEDEHPQCLNSQPHARGSSRAIFSVGPVSPSRRWWYRCYAYDSNSPYEWSLPSDLLELDVDG	≤ 1000 nM	≤ 2 s⁻¹
SEQ ID NO 75 (receptor) MHLPKPTLWAEPGSVITMDQPVTLRCQGGQETQEYRLYREKKTAPWITRIPQELVKKGQFPIPSITWEHAGRYRCYYGTQTSQWSASSDPLELVVTGVYIKPTLSAQPSPVVNSGGNVTLQCDSQVAFDGFILCKEGEDEHPQCLNSQPHARGSSRAIFSVGPVSPSRRWWYRCYAYDSNSPYEWSLPSDLLELDVDG	≤ 1000 nM	≤ 2 s⁻¹
SEQ ID NO 77 (receptor) MHLPKPTLWAEPGSVITMDQPVTLRCQGGQETQEYRLYREKKTAPWITRIPQELVKKGQFPIPSITWEHAGRYRCYYGSDTSQWSASSDPLELVVTGVYIKPTLSAQPSPVVNSGGNVTLQCDSQVAFDGFILCKEGEDEHPQCDNSQPHARGSSRAIFSVGPVSPSRRWWYRCYAYDSNSPYEWSLPSDLLELDVDG	≤ 1000 nM	≤ 2 s⁻¹

Source: patent US20090208447A1 (MEDIGENE, published 2009)
